We go through seven molecules from patent EP4786494A1.

Positions count from the first letter of the chain named.

Test [1] concerns the target human FGFR2 on cells (KATO-III gastric cancer cells; SNU-16 cells; Ba/F3 cells engineered to express human FGFR2b) (human) (UniProt P21802). Put plainly: flow cytometry on KATO-III cells expressing human FGFR2. In general terms: Flow cytometry measures light scatter and fluorescence of single cells or particles in a stream.
The target in test [2] is human FGFR2-his protein (huFGFR2-his) (human). Put plainly: BLI epitope binning on FGFR2-his (HISK sensor), 200 nM antibodies; competitor: bemarituzumab.
Test [3] shares this target. Kind of test: BLI epitope binning on FGFR2-his (HISK sensor), 200 nM antibodies; competitor: huA1B2-3.
The target is the same in test [4]. Kind of test: BLI epitope binning on FGFR2-his (HISK sensor), 200 nM antibodies; competitor: huG11B8-5.

Sequence of human FGFR2-his protein (huFGFR2-his) (human) (chain, as listed by the source limits assumed): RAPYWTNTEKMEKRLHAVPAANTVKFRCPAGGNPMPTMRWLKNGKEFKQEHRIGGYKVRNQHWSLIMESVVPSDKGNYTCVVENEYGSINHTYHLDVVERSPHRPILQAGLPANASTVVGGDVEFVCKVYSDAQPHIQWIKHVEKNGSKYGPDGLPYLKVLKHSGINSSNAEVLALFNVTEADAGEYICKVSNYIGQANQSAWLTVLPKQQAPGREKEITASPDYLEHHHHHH

B1: antibody D12D8 (murine chimeric anti-FGFR2 antibody) (antibody, human IgG1, kappa, V domains shown)
VH: QVQLQQSGAELARPGASVKLSCKASGYTFTNYGISWVKQRTGQGLEWIGEIYPRSGNTYYNEKFKGKATLTADKSSSTAYMELRSLTSEDSAVYFCARGDYSNSDYWGQGTTLTVSS
VL: DIQMTQTTSSLSASLGDRVTISCRASQDITDHLNWYQQKPDGTVKLLIYYTSRLHSGVPSRFSGSGSGTDYSLTISNLEQEDIATYFCQQGNTLPRTFGGGTKLEIKR
Usually EC50 stands for the concentration needed to bring the measured effect to its halfway point. A lower EC50 goes with an effect from little substance. B1: the concentration giving a half-maximal response (EC50) in test [1] stood at 7.37 nM.

B2: antibody A1B2 (murine chimeric anti-FGFR2 antibody) (antibody, human IgG1, kappa, V domains shown)
VH: EVQLQQSGAELVRPGASVKLSCTASGFNIKDYYMHWVKQRPEQGLEWIGRIDPEDGDTEYAPKFQGKATMTADTSSNTAYLQLSSLTSEDTAVYYCTTYYYVSTYEDYWGQGTTLTVSS
VL: QIVLTQSPAIMSASLGEEITLTCSASSSVSHMHWYQQKSGTSPKLLIYSTSNLASGVPSRFSGSGSGTFYSLTISSVEAEDAADYYCHHWSSWTFGGGTKLEIKR
Regarding B2, in test [1], the EC50 was 0.336 nM.

B3: humanized monoclonal antibody huA1B2-3 (antibody, human IgG1, kappa, V domains shown)
VH: EVQLVQSGAEVKKPGATVKISCKASGFNIKDYYMHWVQQAPGKGLEWMGRIDPEDGDTEYAEKFQGRVTITADTSTNTAYMELSSLRSEDTAVYYCTTYYYVSTYEDYWGQGTTVTVSS
VL: EIVLTQSPATLSLSPGERATLSCRASSSVSHMHWYQQKPGQAPKLLIYSTSNLASGVPARFSGSGSGTDYTLTISSLEPEDFAVYYCHHWSSWTFGGGTKVEIKR
Turning to B3, the figures for the epitope binning value (%), not given in test [2], in test [3] and in test [4] were 95.7%, 10.2% and 42.6%, respectively.

B4: bemarituzumab (antibody, human IgG1, kappa, V domains shown)
VH: QVQLVQSGAEVKKPGSSVKVSCKASGYIFTTYNVHWVRQAPGQGLEWIGSIYPDNGDTSYNQNFKGRATITADKSTSTAYMELSSLRSEDTAVYYCARGDFAYWGQGTLVTVSS
VL: DIQMTQSPSSLSASVGDRVTITCKASQGVSNDVAWYQQKPGKAPKLLIYSASYRYTGVPSRFSGSGSGTDFTFTISSLQPEDIATYYCQQHSTTPYTFGQGTKLEIKR
As to B4, the figures for the epitope binning value (%), not given in test [2], in test [3] and in test [4] were 7.8%, 106% and 36.8%, respectively.

B5: antibody F6B6 (murine chimeric anti-FGFR2 antibody) (antibody, human IgG1, kappa, V domains shown)
VH: QVQLKQSGPGLVQPSQSLSITCTVSGFSLTNYGVHWVRQSPGKGLEWLGVIWSDGSTDYDAAFISRLSISTDNSKSQVFFKMNSLQAADTAIYYCARKGDYDYDNYAMDYWGQGTSVTVSS
VL: DVVITQSPATLSVTPGDSVSLSCRASQSISNNLHWYQQKSHESPRLLIKYASQSISGIPSRFSGSGSGTDFTLSINSVETEDFGMYFCQQSNSWPLTFGAGTKLELKR
B5 showed a concentration giving a half-maximal response (EC50) in test [1] of 14.4 nM. This lies in the double-digit nanomolar range.

B6: antibody G11B8 (murine chimeric anti-FGFR2 antibody) (antibody, human IgG1, kappa, V domains shown)
VH: EVQLQQSGPELVKPGASVKIPCKASGYTFTDYNMDWVKQSHGKSLEWIGDINPKNGETFYNQKFKGKATLTVDRSSNTAYMELRSLTSEDTAVYFCAKRDLNWYFDYWGQGTTLTVSS
VL: DIQMTQSSSYLSVSLGGRVTITCKASDHINNWLAWYQQKPGNAPRLLISGATSLETGVPSRFSGSGSGKDYTLSITSLQTEDVATYYCQQYWSTPWTFGGGTKLEIKR
In test [1], B6 registered an EC50 of 0.949 nM.

B7: antibody H3F7-a (murine chimeric anti-FGFR2 antibody) (antibody, human IgG1, kappa, V domains shown)
VH: B6 VH with N77S
VL: B6 VL
With B7, the EC50 in test [1] worked out at 1.09 nM.
